According to patent publication US20220017611A1:

Molecular target: Tau RD (MTBD) P301S fused to CFP or YFP, in HEK293 Tau RD P301S FRET Biosensor cells (UniProt P10636)
Assay: cell-based or functional assay

Sequence of Tau RD (MTBD) P301S fused to CFP or YFP, in HEK293 Tau RD P301S FRET Biosensor cells (P10636 561-689 P618S): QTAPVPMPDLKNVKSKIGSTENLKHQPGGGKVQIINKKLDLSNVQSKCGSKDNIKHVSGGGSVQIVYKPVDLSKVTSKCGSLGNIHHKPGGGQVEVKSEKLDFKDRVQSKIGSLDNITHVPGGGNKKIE

Binder	mCherry-gated FRET positive cells after MTBD seeds [%]	seeding inhibition against mCherry-VHH F8-2 [%]	seeding inhibition [%]
mCherry-VHH E4-1 (VHH, not shown: large carriers) VHH: EVQLQASGGGFVQPGGSLRLSCAASGATSTFDGMGWFRQAPGKEREFVSAISYEQGSYTYYADSVKGRFTISRDNSKNTVYLQMNSLRAEDTATYYCAPAYEGDLYAFDSYWGQGTQVTVSS	15.2	7.8	
mCherry-VHH Mut1 (VHH, not shown: large carriers) VHH: EVQLQASGGVFVQSGGSLRLSCAASGATSTFDGMGWFRQAPGKEREFVSAISYEQGSYTYYADSVKGRFTISRDNSKNMVYLQMNSLRAEDTATYYCAPAYEGDLYAFDSYGEQGTQVTVSS	8.2		50
mCherry-VHH Z70 (VHH, not shown: large carriers) VHH: EVQLQASGGVFVQSGGSLRLSCAASGATSTFDGMGWFRQAPGKEREFVSAISYEQGSYTYYADSVKGRFTISRDNSKNMVYLQMNSLRAEDTATYYCAPAYEGDLYAFDSYGGQGTQVTVSS	9.9	40	
mCherry-VHH Mut20 (VHH, not shown: large carriers) VHH: EVQLQASGGVFVQSGGSLRLSCAASGATSTFDGMGWFRQAPGKEKEFVSAISYEQGSYTYYADSVKGRFTISRDNSKNMVYLQMNSLRAEDTATYYCAPAYEGDLYAFDSYGEQGTQVTVSS	11.2		32
mCherry-VHH Mut14 (VHH, not shown: large carriers) VHH: EVQLQASGGVFVQSGGSLRLSCAASGATSIFDGMGWFRQAPGKEREFVSAISYGQGSYTYYADSVKGRFTISRDNSKNMVYLQMNSLRAEDTATYYCAPAYEGDLYAFDSYGEQGTQVTVSS	12.7		23
mCherry-VHH Mut3 (VHH, not shown: large carriers) VHH: EVQLQASGGVFVQSGGSLRLSCAASGATSTFDGMGWFRQAPGKEKEFVSAISYEQGSYTYYADSVKGRFTISRDNSKNMVYLQMNSLRAEDTATYYCAPAYEGDLYAFDSYGGQGTQVTVSS	8.2		50
mCherry-VHH Mut5 (VHH, not shown: large carriers) VHH: EVQLQASGGVFVQSGGSLRLSCAASGATSTFDGMGWFRQAPGKEREFVSAISYEQGSYTYYADSVKGRFTISRDNSKNMVYLQMNSLRAEDTASYYCAPAYEGDLYAFDSYGGQGTQVTVSS	12.1		27
mCherry-VHH Mut12 (VHH, not shown: large carriers) VHH: AEVQLQASGGVFVQSGGSLRLCCAASGATSTFDGMGWFRQAPGKEREFVSAISYEQGSYTYYADSVKGRFTISRDNSKNMVYLQMNSLRAEDTATYYCAPAYEGDLYAFDSYGEQGTQVTVSS	8.5		48
